Laboratory results as given in US12134788B2, “Engineered prephenate dehydrogenases and arogenate dehydrogenases and methods of using the same” (Wisconsin Alumni Research Foundation, priority 2017, dated 2024).
Blank lines part the entries; values can stand above or below the molecule they belong to.

Columns and labels:
[1] = substrate: O=C(O)C(=O)CC1(C(=O)O)C=CC(O)C=C1; assay: ADH and PDH assay: steady-state kinetics and Tyr inhibition, GmPDH1 wild type; format: biochemical, Glycine max (soybean); settings: other: 0.5 mM NADP^+, pH 7.6, 37° C.
Method: (§1) Kinetic parameters of purified recombinant proteins were determined from assays conducted at varying arogenate (19.5 μM-5 mM) and prephenate concentration (23.4 μM-6 mM). Standard assay conditions were 25 mM HEPES pH 7.6, 50 mM KCl and 10% (v/v) ethylene glycol, and 0.5 mM NADP^+ with varied substrate, concentrations. Reactions were initiated by addition of enzyme and incubated at 37° C. monitored every 10-15 seconds at […] using a microplate reader (Tecan Genios). Kinetic parameters were determined by fitting initial velocity data to the Michaelis-Menten equation using the Origin software (OriginLab).
(§2) Arogenate was prepared by enzymatic conversion of prephenate (Sigma-Aldrich) as previously reported^56. For Tyr inhibition assays, Tyr was dissolved in a slightly basic solution (0.025 N NaOH) due to solubility issues, thus the concentration of lysis buffer was increased to 500 mM HEPES final concentration to buffer against the changes by addition of Tyr in the reaction. […]

[2] = substrate: N[C@@H](CC1(C(=O)O)C=CC(O)C=C1)C(=O)O; assay: as above; format: biochemical, Glycine max (soybean); settings: other: 0.5 mM NADP^+, pH 7.6, 37° C.
Method: as §1, §2

[3] = PDH assay: steady-state kinetics of purified recombinant plant enzymes with prephenate; format: biochemical; settings: prephenate versus arogenate, NADP+ cofactor
Text: As used herein, a polypeptide may “have greater arogenate dehydrogenase activity than prephenate dehydrogenase activity” or “have greater prephenate dehydrogenase activity than arogenate dehydrogenase activity” when the steady-state kinetic parameters (kcat/Km (mM^−1s^−1)) for arogenate dehydrogenase activity are greater than the steady-state parameters (kcat/Km (mM^−1s^−1)) for prephenate dehydrogenase activity or when the steady-state kinetic parameters (kcat/Km (mM^−1s^−1)) for prephenate dehydrogenase activity are greater than the steady-state parameters (kcat/Km (mM^−1s^−1)) for arogenate dehydrogenase activity. Steady-state kinetic parameters may be measured using techniques similar to those described by the inventors in the Examples. Briefly, kinetic parameters of purified polypeptides can be determined from assays conducted at varying arogenate and prephenate concentrations. Standard assay conditions include 25 mM HEPES pH 7.6, 50 mM KCl and 10% (v/v) ethylene glycol, and 0.5 mM NADP^+ with varied substrate, concentrations. Reactions can be initiated by the addition of the polypeptide and incubated at 37° C. monitored every 10-15 seconds at A340nm using a microplate reader. Kinetic parameters may be determined by fitting initial velocity data to the Michaelis-Menten equation using the Origin software.
as §1

[4] = PDH assay of microbial TyrA enzymes (Example 2); format: biochemical
Method: ADH and PDH assays were performed using purified recombinant enzymes for SsTyrA and MhTyrA Wt and Q227E mutant, while the E. coli cell lysate was used for OiTyrA as expression and purification of this enzyme was unsuccessful. Reactions contained 0.8 mM substrate (arogenate or prephenate) and 0.8 mM cofactor (NADP+ or NAD+) together with reaction buffer (25 mM HEPES pH 7.6, 50 mM KCl, 10% (v/v) ethylene glycol). For OiTyrA assays containing cell lysates, reactions were incubated for 45 minutes and analyzed using HPLC as previously reported (Schenck et al., 2015). For pure enzymes, reactions were monitored every 10-15 seconds for reduced cofactor at A340 nm using a microplate reader (Tecan Genios). Kinetic parameters of purified recombinant enzymes were determined from assays containing varying concentrations of arogenate (39.1 μM-5 mM) or prephenate (39.1 μM-5 mM) substrate and monitored 10-15 seconds for reduced cofactor at A340 nm using a microplate reader (Tecan Genios). Kinetic parameters were determined by fitting initial velocity data to the Michaelis-Menten equation using Origin software (OriginLab) from technical replicate assays (n=3). Arogenate substrate was prepared by enzymatic conversion of prephenate (Sigma-Aldrich). All enzyme assays were conducted at a reaction time and protein concentration that were in the linear range and proportional to reaction velocity.

[5] = substrate: N[C@@H](CC1(C(=O)O)C=CC(O)C=C1)C(=O)O; assay: ADH and PDH assay: steady-state kinetics and Tyr inhibition, GmncADH wild type; format: biochemical, Glycine max (soybean); settings: other: 0.5 mM NADP^+, pH 7.6, 37° C.
Method: as §1
(§3) Arogenate was prepared by enzymatic conversion of prephenate (Sigma-Aldrich) as previously reported^56. For Tyr inhibition assays, Tyr was dissolved in a slightly basic solution (0.025 N NaOH) due to solubility issues, thus the concentration of lysis buffer was increased to 500 mM HEPES final concentration to buffer against the changes by addition of Tyr in the reaction. Reactions containing varying amounts of Tyr (10 μM-8 mM) with 0.5 mM NADP^+ and either 1 mM arogenate or 0.8 mM prephenate were monitored as above.

[6] = substrate: O=C(O)C(=O)CC1(C(=O)O)C=CC(O)C=C1; assay: ADH and PDH assay: steady-state kinetics and Tyr inhibition, MtncADH wild type; format: biochemical, Medicago truncatula; settings: other: 0.5 mM NADP^+, pH 7.6, 37° C.
Method: as §1, §3

[7] = substrate: N[C@@H](CC1(C(=O)O)C=CC(O)C=C1)C(=O)O; assay: as above; format: biochemical, Medicago truncatula; settings: other: 0.5 mM NADP^+, pH 7.6, 37° C.
Method: as §1, §3

[8] = substrate: O=C(O)C(=O)CC1(C(=O)O)C=CC(O)C=C1; assay: ADH and PDH assay: steady-state kinetics and Tyr inhibition, MtPDH wild type; format: biochemical, Medicago truncatula; settings: other: 0.5 mM NADP^+, pH 7.6, 37° C.
Method: as §1, §2

[9] = substrate: N[C@@H](CC1(C(=O)O)C=CC(O)C=C1)C(=O)O; assay: as above; format: biochemical, Medicago truncatula; settings: other: 0.5 mM NADP^+, pH 7.6, 37° C.
Method: as §1, §2

[10] = substrate: N[C@@H](CC1(C(=O)O)C=CC(O)C=C1)C(=O)O; assay: ADH and PDH assay: steady-state kinetics and Tyr inhibition, SolyncADH wild type; format: biochemical, Solanum lycopersicum (tomato); settings: other: 0.5 mM NADP^+, pH 7.6, 37° C.
Method: as §1, §3

B1: GmPDH1 (Gm18g02650), soybean (Glycine max) prephenate dehydrogenase, wild type (Glycine max) (protein)
chain: MSTSSSSQSLKIGIVGFGNFGQFLAKTMIKQGHTLTATSRSDYSELCLQMGIHFFRDVSAFLTADIDVIVLCTSILSLSEVVGSMPLTSLKRPTLFVDVLSVKEHPRELLLRELPEDSDILCTHPMFGPQTAKNGWTDHTFMYDKVRIRDEVICSNFIQIFATEGCKMVQMSCEEHDRAAAKSQFITHTIGRTLGEMDIQSTPIDTKGFETLVKLKETMMRNSFDLYSGLFVYNRFARQELENLEHALHKVKETLMIQRTNGEQGHKRTES
notes: homodimer
Km [1]: 0.09 ± 0.01 mM | kcat [1]: 30.4 ± 0.7 s⁻¹ | kcat/Km [1]: 338000 M⁻¹ s⁻¹ | Km [2]: 2.59 ± 0.09 mM | kcat [2]: 6.3 ± 0.7 s⁻¹ | kcat/Km [2]: 2430 M⁻¹ s⁻¹

substrate specificity: PDH versus ADH activity (in words) [3]: gained ADH activity
B2: GmPDH1 N222D: site-directed mutant of soybean PDH, Asn222 to Asp (protein)
chain: MSTSSSSQSLKIGIVGFGNFGQFLAKTMIKQGHTLTATSRSDYSELCLQMGIHFFRDVSAFLTADIDVIVLCTSILSLSEVVGSMPLTSLKRPTLFVDVLSVKEHPRELLLRELPEDSDILCTHPMFGPQTAKNGWTDHTFMYDKVRIRDEVICSNFIQIFATEGCKMVQMSCEEHDRAAAKSQFITHTIGRTLGEMDIQSTPIDTKGFETLVKLKETMMRDSFDLYSGLFVYNRFARQELENLEHALHKVKETLMIQRTNGEQGHKRTES
modifications: Synthetic: GmPDH1 N222D
notes: site-directed mutant of soybean PDH, Asn222 to Asp

ADH and PDH activity (in words) ([4]; 0.8 mM arogenate or prephenate, 0.8 mM cofactor): strong PDH and very weak ADH activity
B3: Wild-type: wild-type archaeon TyrA from Methanosaeta harundinacea, recombinant (protein)
chain: MTTMANSGTKNRMLIVGGTGGTGSWFAKYFKEHGFLVSIWGPSGKVEVAERLGVKFARDLMAEVAKSDVVLLSVPIKETAKVVEEVAPRMRPGSLLMDVTSLKAEPMKAMLRWAPDGVEVLGTHPMFGPTIPTIRGQTVILVPAAGRCDEWLLPMEEIFQEDGARVEVLGAEEHDRIMAVVQALTHFAYISIGSTLRSLDFDIAHSRRLMSPVYEIMIDFVGRILAQSPELYSSIQENPEAKRVREAYIEECQRLSKLADTGNSEGFMEAMRSAADHFDEREVALARSDRLISLWIDHREGKRRGLEPRW
modifications: M. harundinacea; misc_feature (1)..(310): M. harundinacea TyrA MhTyrA
notes: wild-type archaeon TyrA from Methanosaeta harundinacea, recombinant
cofactor preference (in words) ([4]; PDH activity, NADP+ versus NAD+, 0.8 mM): strongly preferred NADP+ over NAD+ cofactor

B4: GmncADH (Gm14g05990), soybean (Glycine max) noncanonical arogenate dehydrogenase, wild type (Glycine max) (protein)
chain: MSTWSLKIGVVGFGSFGQFLAKTMIKQGHTLRATSRTDYSLLCLPMGIQFFRDVAAFLEADNDVILVCTSILSLSEVLSSMPLTCLKRSTLFVDVLSVKEHPRNLLIKVLPEESDILCTHPMFGPDSGKDGWQDLTFVYDKVRIRDEAICSSFLHIFASEGCRMLQMSCEEHDKIAAKSQFITHTIGRTLAEMDIKSTPIDTKGFHSLVQLKDTTIRDSFDLYSGLFLHNRFAVQELENLEHALHKVKEMLVQRKSEELGLEKTEC
notes: wild type
Km [5]: 0.41 ± 0.03 mM | kcat [5]: 27.7 ± 1.1 s⁻¹ | kcat/Km [5]: 67600 M⁻¹ s⁻¹

B5: MtncADH (Mt5g083530), Medicago truncatula noncanonical arogenate dehydrogenase, wild type (Medicago truncatula) (protein)
chain: MSNSPSLKIGIVGFGSFGQFLAKTMIKQGHTLTATSRTDYSHTCLQLGIQFFRDVGTFIEANNDVILICTSIMSFTKVLSSMPLACLKKPTTLFVDVLSVKEHPREVLLRVLPEESDILCTHPMFGPESGKNGWKDLNFMYDKVRIHDEATCSNFLHIFASEGCKMLQMSCEEHDKIAAKSQFITHTIGRTLAEMDIESTPIDTKGFQTLTQLKNTTMRDSFDLYSGLFVHNRFAKQELENLQRALDRVKEMLVQRMREELGPEKD
notes: wild type
Km [6]: 6.69 ± 0.27 mM | kcat [6]: 0.3 ± 0.1 s⁻¹ | kcat/Km [6]: 45 M⁻¹ s⁻¹ | Km [7]: 0.14 ± 0.02 mM | kcat [7]: 39 ± 7.6 s⁻¹ | kcat/Km [7]: 279000 M⁻¹ s⁻¹

B6: MtPDH (MtPDH1; Mt3g071980), Medicago truncatula prephenate dehydrogenase, wild type (Medicago truncatula) (protein)
chain: MSSSSKSLKIGIVGFGTFGQFLANTMIKQGHTLTATSRTDYSQLCDQMGIHFFRDITAFLDADMDVILLCTSISSLSEVVGSMPLACLKRPTLFVDVLSVKEHPKNLLLKVLPEESDILCTHPMFGPVSGKNGWQNLTFMFDKVRIKDEVTCSKFLQIFASEGCKMVEMSCEEHDKAAAKSQFITHTIGRTLAEMDIKSTPIDTKGFQTLVELKKPVMGCSFDLYSGLFVYNRFARQELENLEHALHKVKEMLVQRIDEGQNPERTES
Km [8]: 0.05 ± 0.01 mM | kcat [8]: 18.5 ± 3 s⁻¹ | kcat/Km [8]: 370000 M⁻¹ s⁻¹ | Km [9]: 0.94 ± 0.04 mM | kcat [9]: 16.9 ± 1.1 s⁻¹ | kcat/Km [9]: 18000 M⁻¹ s⁻¹

B7: MtPDH C220D: site-directed mutant of M. truncatula PDH, Cys220 to Asp (protein)
chain: MSSSSKSLKIGIVGFGTFGQFLANTMIKQGHTLTATSRTDYSQLCDQMGIHFFRDITAFLDADMDVILLCTSISSLSEVVGSMPLACLKRPTLFVDVLSVKEHPKNLLLKVLPEESDILCTHPMFGPVSGKNGWQNLTFMFDKVRIKDEVTCSKFLQIFASEGCKMVEMSCEEHDKAAAKSQFITHTIGRTLAEMDIKSTPIDTKGFQTLVELKKPVMGDSFDLYSGLFVYNRFARQELENLEHALHKVKEMLVQRIDEGQNPERTES
modifications: Synthetic: MtPDH C220D
notes: site-directed mutant of M. truncatula PDH, Cys220 to Asp
substrate specificity: PDH versus ADH activity (in words) [3]: reduced PDH activity and enhanced ADH activity

B8: SolyncADH (Slycopersicum06g050630), tomato noncanonical arogenate dehydrogenase, wild type (Solanum lycopersicum) (protein)
chain: MSSSSSCQPKTLRIGIIGFGPFAQFLAKTMMKQGHCIHVTSRSDYSELCTDLGILFFRDMGAFLESDNEVIMISTSILSLSQVVESIPFNCLKRPTLFVDVLSVKEHPKDVLLRMMPRECDLLCTHPMFGPESGKDGWEDLTFMYDMVRIRDQPLCSSFLHIFSSEGCKMLEMTCEKHDRLAAQSQFLTHTIGRILSEMEVEPTPIDTKGFQKLVQVKESSVKDSFDLFSGLFIHNRFARQQMKNLEVALEKTKEKLQERSKELQDPIISKF
notes: wild type
Km [10]: 0.45 ± 0.05 mM | kcat [10]: 15.9 ± 2.1 s⁻¹ | kcat/Km [10]: 35300 M⁻¹ s⁻¹

substrate specificity: PDH versus ADH activity (in words) [3]: exhibited ADH but not PDH activity
B9: SolyncADH: noncanonical arogenate dehydrogenase from tomato, wild-type (protein, listed as Solanum lycopersicum)
chain: MSSSSSCQPKTLRIGIIGFGPFAQFLAKTMMKQGHCIHVTSRSDYSELCTDLGILFFRDMGAFLESDNEVIMISTSILSLSQVVESIPFNCLKRPTLFVDVLSVKEHPKDVLLRMMPRECDLLCTHPMFGPESGKDGWEDLTFMYDMVRIRDQPLCSSFLHIFSSEGCKMLEMTCEKHDRLAAQSQFLTHTIGRILSEMEVEPTPIDTKGFQKLVQVKESSVKDSFDLFSGLFIHNRFARQQMKNLEVALEKTKEKLQERSKELQDPIISKF
modifications: misc_feature (1)..(272): SolyncADH WT
notes: noncanonical arogenate dehydrogenase from tomato, wild-type
